The target of one experiment is T1, NT-biotin hepcidin-25 (NT-biotin (biotin label; NT is not spelled out, taken as the N-terminus)).
T1 peptide: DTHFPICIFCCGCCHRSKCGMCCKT
Briefly: Biacore (SPR); 5 µg/ml 583.

The next experiment concerns the target T2, K18-biotin hepcidin-25 (biotin on K18).
T2 peptide: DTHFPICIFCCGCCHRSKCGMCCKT
Briefly: Biacore (SPR); 5 µg/ml 583.

B1: murine anti-hepcidin MAb 583 (antibody, V domains shown)
VH: QIQLVQSGPELKKPGETVKISCKASGYTFTNYGMNWVKQAPGKGLKWMGWINTYTGEPTYADDFKGRFAFSLETSASTAYLQINNLKNEDTATYFCTTYATSWYWGQGTTLTVSS
VL: DIVLTQSPASLAVSLGQRATISCRASESVDSYGNSFMHWYQQKPGQPPKLLIYRASNLESGIPARFSGSGSRTDFTLTINPVEADDVATYYCQQSNEDLTFGGGTKLEIK
Consider B1, for which the Ka with NT-biotin hepcidin-25 was found to be 5.47e+10 M⁻¹; with K18-biotin hepcidin-25, 1.34e+11 M⁻¹.

The record behind these values is patent US20170283495A1 (published 2017).
